Biological target: Rabbit skeletal actin (unoxidized) (rabbit) (UniProt P68135)
Assay: other fluorescence titration; profilin stock titrated into 0.15 uM actin; quenching of the intrinsic tryptophan fluorescence of actin, excitation 295 nm, emission 330 nm; 5 mM PIPES pH 7, 0.2 mM CaCl2, 0.2 mM ATP, 0.5 mM DTT (G-buffer conditions)

human profilin-1 (from UniProt P07737 1-140) (natural protein; other documents disagree on this pair)
Kd: 500 nM

Source: article PMC8452626
